We go through one substance from patent US20050282216A1.

Experiment [1] concerns the target hIL-13Rα and hIL-4R coexpressed on cells (reconstituted high-affinity receptor) (human) (UniProt P24394). In words: Scatchard analysis on CHO-hIL4R cells transfected with hIL-13Rα cDNA, high-affinity site.
For experiment [2], the target named is human IL-13Rα (human) (UniProt P78552). Briefly: Scatchard analysis of saturation binding on CHO cells transfected with IL-13Rα cDNA.
Experiment [3] addresses human IL-13Rβ (human) (UniProt Q14627). Briefly: Scatchard analysis of saturation binding of 125I-labelled IL-13 on Caki-1 cells.
Sequence of UniProt Q14627 (Q14627 27-380 limits assumed, form in doubt): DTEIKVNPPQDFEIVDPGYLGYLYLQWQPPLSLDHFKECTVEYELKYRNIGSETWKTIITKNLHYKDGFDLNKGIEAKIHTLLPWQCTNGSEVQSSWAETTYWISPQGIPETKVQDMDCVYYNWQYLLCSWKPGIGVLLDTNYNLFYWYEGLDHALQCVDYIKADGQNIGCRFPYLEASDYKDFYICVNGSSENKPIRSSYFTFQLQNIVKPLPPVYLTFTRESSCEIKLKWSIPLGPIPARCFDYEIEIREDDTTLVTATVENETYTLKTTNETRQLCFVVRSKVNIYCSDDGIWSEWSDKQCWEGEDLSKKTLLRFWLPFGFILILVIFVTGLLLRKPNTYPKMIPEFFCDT
Experiment [4] has as its target human IL-13Rα (human) (UniProt P78552). In words: Scatchard analysis on CHO-hIL4R cells transfected with hIL-13Rα cDNA, low-affinity site (nonassociated IL-13Rα chains).
Experiment [5] addresses human IL-13Rβ (human) (UniProt Q14627). In words: Scatchard analysis of saturation binding on COS-7 cells transfected with IL-13Rβ cDNA.
The target of experiment [6] is human IL-13Rα (human) (UniProt P78552). Briefly: radioligand binding on CHO cells; the basis of this value is not explained.

Sequence of UniProt P78552 (P78552 22-427 limits assumed, form in doubt): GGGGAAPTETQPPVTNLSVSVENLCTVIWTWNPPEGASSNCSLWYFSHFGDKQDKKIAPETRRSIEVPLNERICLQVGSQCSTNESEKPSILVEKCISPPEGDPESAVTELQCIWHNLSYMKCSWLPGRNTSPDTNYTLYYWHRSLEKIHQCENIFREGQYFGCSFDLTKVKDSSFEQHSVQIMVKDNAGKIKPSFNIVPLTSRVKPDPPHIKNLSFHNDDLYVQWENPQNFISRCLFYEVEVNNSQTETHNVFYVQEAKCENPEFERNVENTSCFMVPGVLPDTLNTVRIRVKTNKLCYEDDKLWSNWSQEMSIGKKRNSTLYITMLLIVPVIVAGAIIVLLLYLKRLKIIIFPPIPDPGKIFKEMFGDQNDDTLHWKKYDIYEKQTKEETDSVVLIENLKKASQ

Consider “[125I][Phe43]-IL-13-GlyTyrGlyTyr (from UniProt P35225 35-146) (ligand)”, for which the Kd was determined as 0.023 nM in experiment [1]; 4.5 nM with human IL-13Rα (human) [2]; 0.446 nM with human IL-13Rβ (human) [3]; 4.2 nM with human IL-13Rα (human) [4]; 0.25 nM in the experiment with human IL-13Rβ (human) [5]; 7.5 nM in the experiment with human IL-13Rα (human) [6].

Usually Kd stands for the equilibrium constant for the complex coming apart. Lower therefore signals higher affinity.
